Measured values published in patent US20120165211A1, “Human Antibodies Cross-Reacting With A Bacterial And A Self Antigen From Atherosclerotic Plaques” (priority 2007, published 2012).
Entries after “also recorded” stand apart in the source; their conditions may differ.

Key:
[1] = test system: antigen present in Proteus mirabilis; assay: Western blot assay on pathogen lysates; format: binding; settings: Fab 10 μg/ml; 8 μg total protein lysate per well
Experimental: (§1) Bacterial cell lysates were carried out inoculating a colony or a scratch in 10 ml of SB and growing bacteria at 37° C. overnight. Cultures of Staphylococcus aureus, Proteus mirabilis, Klebsiella pneumoniae, Enterococcus cloacae, Streptococcus pyogenes, Neisseriae gonhorreae, Listeria monocytogenes were grown. Overnight cultures were harvested by centrifugation (4500 RPM for 10 min.) and then resuspended in 1 ml of RIPA buffer and protease inhibitor PMSF (1 mM final). After three cycles of freeze-and-thawing (37° C. and −80° C.) and one cycle of sonication (90 sec at max power) the lysate was cleared by centrifugation (15000 RPM at 4° C. for 20 min) Moreover one colony of Haemophilus influenzae was seeded on blood agar plates and then grown at 37° C. overnight. Haemophilus inluenzae colonies were collected and resuspended in 500 μl of RIPA/PMSF. All lysates were stored at −20° C. until usage.
(§2) Lysates from Listeria monocitogenes, Streptococcus pyogenes, Staphylococcus aureus, Enterococcus cloacae, Haemophilus influenzae, Proteus mirabilis, Escherichia coli, Klebsiella pneumoniae, were prepared as described in Example II. SDS-PAGE was performed according to standard techniques. Briefly, protein concentration of all lysates was determined by BCA kit (Pierce) according to manufacturer instruction. SDS-PAGE loading buffer was added to protein lysates before heating at 90° C. for 5 min. […]

[2] = test system: antigen present in Klebsiella pneumoniae; assay: Western blot assay on pathogen lysates; format: binding; settings: Fab 10 μg/ml; 8 μg total protein lysate per well
Experimental: as §1, §2

B1: Fab7816: human recombinant Fab from coronary plaque library ID11LIB; heavy chain SEQ ID NO:2, light chain SEQ ID NO:4 (antibody, listed as Homo sapiens, V domains shown)
VH: LESGPGQVKPSQTLSLTCTVSGGSIGSGSYSWNWIRQPAGRGLEWIGRISDSGNTNFNPSLKSRVTMSVDTSKNQFALKLTSVTAADTATYFCARGRGILTGLFDYWGQGSLVSVSSASTKGPSVFPLAPSSKSTSGGTAALGCLVKD
VL: SPDSLAVSPGGRATIKCASSQSVLDNSNHKNSLAWYQQKPGLPPKLLIYWASTRYSGVPDRFSGSGSGTDFTLTINNLQAADVAVYFCQQYYSTPWTFGQGTKVE
[1]
  binding in Western blot on Proteus mirabilis lysate: binds specifically; also recorded: recognizes with high specificity and affinity
[2]
  binding in Western blot on Klebsiella pneumoniae lysate: binds specifically; also recorded: recognizes with high specificity and affinity
